# The DeepSol protein solubility set
# Assay: soluble on expression in E. coli; label from the status in PepcDB or PDB records
row,Sequence,soluble on expression in E. coli
1,MQSNTPQPNPAPFLKAGETVVLFDGVCKLCNGWAKFIIRHDRRQRIRLATVQSPEGQALLEWAGLPLDRFDTMAAVTGDRLYVRSEAFFVALSDFPAPWRWLRVLRFFPAVIRDWLYDRIALNRYRLFGRYDSCLLPTPDHERRFLKASPLEHHHHHH,soluble
2,MQSVDVAIVGGGMVGLAVACGLQGSGLRVAVLEQRVPEPLAVDALPQLRVSAINAASEKLLTRLGVWQDILARRASCYHGMEVWDKDSFGHISFDDQSMGYSHLGHIVENSVIHYALWNKAQQSSDITLLAPTELQQVAWGENETFLTLKDGSMLTARLVIGADGANSWLRNKADIPLTFWDYQHHALVATIRTEEPHDAVARQVFHGEGILAFLPLSDPHLCSIVWSLSPEEAQRMQQASEDEFNRALNIAFDNRLGLCKVESARQVFPLTGRYACQFAAHRLALVGDAAHTIHPLAGQGVNLGFMDAAELIAELKRLHRQGKDIGQYIYLRRYERSRKHSAALMLAGMQGFRDLFSGANPAKKLLRDIGLKLADTLPGVKPQLIRQAMGLNDLPEWLRLEHHHHHH,soluble
3,MQTLKYISGYSPDIQRQVQQLLESGKLGDVLLRRHPQVHEIRSDKALYDYTQGIKNQFLRQSSPLSKVIFDDKISMSHHALGLHSYVARVQGNKIKAKNEIRISSRLKRVPEPLLRMVVVHELAHLKEKDHNKAFYNLCTYMEPDYHQFEFDLRLLLTCIDANQSPYATNSINLEHHHHHH,soluble
4,MQTVIFGRSGCPYSVRAKDLAEKLSNERDDFQYQYVDIRAEGITKEDLQQKAGKPVETVPQIFVDQQHIGGYTDFAAWVKENLDA,soluble
5,MQVINLKYPVALSQIPEGPIVLALGFFDGVHRGHQQVVATARQAAQAQHAKLAVMTFDQHPSVVFKHTDPQQVRYLTTIDQKTALMSELGVDILYVLHFDATVGAMPPQTFVDQLIVGLHAQTVVAGFDYTYGPAEIANMQRLNDYGHNRFEIIEVPKAELDAEKISSTRIRRALDAGDIDTANRLLGYQYETAGEVVHGEARGRTLGFPTANVAHGPNTRVPGIGIYATMVQIGTRWVMGMASVGRNVTFGDHRPITVEIYLLDFRGDLYGHNLTVRWGHRMRGEIKFAGADALVAQLKRDEQNTRDYYVAHPFVVAPRIQVAQQSNRLEAQ,not soluble
6,MQWQTKLPLIAILRGITPDEALAHVGAVIDAGFDAVEIPLNSPQWEQSIPAIVDAYGDKALIGAGTVLKPEQVDALARMGCQLIVTPNIHSEVIRRAVGYGMTVCPGCATATEAFTALEAGAQALKIFPSSAFGPQYIKALKAVLPSDIAVFAVGGVTPENLAQWIDAGCAGAGLGSDLYRAGQSVERTAQQAAAFVKAYREAVQLHHHHHH,soluble
7,MQYVKIKDAIVEQIDAGMLMPRQKLPAERKLAESFDTTRVTLREALSLLEAEGKIYREDRRGWFISPAPLRYDPTQTLNFTNMALAQNRQPKTELVSAKAVIANKQATRLLKLKPFSDVYRVDRVRYLDNRPVVYVTNYIRPELFPNLLDFDLSQSLTDLYREHYATQYQTIHYRISTSSLLGEMAQALRATSGTPAMVVERVNYNQKGELIDCDIEYWRHDAITIESIAELKR,not soluble
8,MRADGRSSCELRPVHIHPHYMKHAEGSVLIEIGDTKVICTATVEEKVPSFMRGGGKGWITAEYGMLPRATEQRNVREASKGKVSGRTMEIQRLIGRALRSVVDLEQLGERTIWIDCDVIQADGGTRTASITGAYVALVLALAKLVEEGKLEALPIRDFLAATSVGIDPEHGVILDLDYNEDARAKVDMNVVMTGAGQFVEIQGTGEEAVFSRAELDELLEAAQIGIEQLIAVQRRALGEWAARIGEKKEAAEEDTE,not soluble
9,MRALIRYEDVPSKLWTLPKMTDFWGIGKRTEKRLNKLGISSIKELTNADPLLLKQKLGTIGLQHFFHANGIDESNVRLEHHHHHH,not soluble
10,MRAQDLPPLPETPGVYLWKRGEEVLYVGKAKSLRARVKSYFHAEGKARRIAEEATGLDFIATRDEVEALLLEANLIKAHRPLYNVLLKDDKHYPFLKLTNEPFPTLLVVRRVEEDGAKYYGPFPEAGALRRIKTLIDRLFPLRKNSGYPMKRRRYPCLNYSMGRCLAPCVGKADPEAYQEVVRQVEAVLEGRVDGLLQELEAKMREAARRLEFERAAEIRDQMEALRAFFSTDQQAFDPEMGDLDFLGMARSGALAVVQLYQVRSGRILGRISRVVEKEEATDEEILWAFLRDHYLEASPLPPLVLLPFPLEDLESLAELLKRRAGRKVELRVPKKGEKARLLELAERNARLALETELKLRERRGEHPALKALQDLLGLPARPWRLEGYDISHLQGQARVFSIAVFEGGRPKRQEYRRMRLKAGNDDYAAMEEGVFRRYTGSLKDLPLPDLLLIDGGVGQVRAAARALERAGLRLPLVGLAKGEEVLVTPEGRELRLPLTHPALQLLIHLRDEAHQNGLRYHRKRRSEELFRVLQGIPGIGEKRRRLLLERYGGLRALKEAPLEELARLPGMSLEAARALKAALAEEEPA,soluble
11,MRARSSLSAGQREELVALFEQGYSYWAAAHHVGVGVYPVRALFRRFLLHGKLCLVEKPSKQQYSFEIKKEVVQRHLAGESKMDLAREFGLSSDQMVGYWSRKWRKGGDDALKLKPKGRPKGSAKPKVLTEEDKLRRENERLRAENAYLKKLRDLKNQGHALEHHHHHH,not soluble
12,MRCGIAGLCARAKKVLGEDPAGGTLLVFRGRMGDRLKILHWDGQDFCLYYKVLERGHFPWPKATEGKVALTPAQMAMLWEGIDWRQPRWTSAPTRM,not soluble
13,MRDYATTAAGFDLQRTAAATLSGTLQALNACVECCDRHALPGRIALFWEGKDGSRASYTFSELKALSGRFANFLQAQGVRPGDCVAGLLPRTPELLVTILGAWRLGAVYQPLFTAFGPKAIEHRVATAGSKVLVTDAANRDKLDELADPPLAVTVGGPKGQGIRRGDFSFWAELERYPAEFEPVPRSGEDPFLMMFTSGTTGLAKPVPVPLKAILAFVGYLREAVDLRPEDAFWNLADPGWAYGLYYAVAGPLAMGHPTTFYEGPFSVESTCRIIRDYGITNLAGSPTAYRLLMAAGAAAETALKGRLRAVSSAGEPLTPEVIRWFADRLGTTIHDHYGQTELGMVLCNHHALAHPVRVGAAGFACPGHRVVVLDDDLNELPPGQPGILALDRRRSPLMWFPGYQGLETAAFVGDYYLSGDTVELNEDGSISFVGRADDVITTSGYRVGPFDVESALIEHPAVMEAAVIGKPDPERTELVKAFVVLCAGHRPTPELADALQRYVRQRLSAHAYPREIEFLEELPKTPSGKIQRFLLRNQEIARQREAAPRAAAAN,not soluble
14,MRDYKQLNGLALAYVGDAIYEIYIRDYLVSLGQTKPNVLHRMATHYVSAKAQASLMQAMLAGEMLTEEEEVMYKRGRNAKSHTFAKNADVTTYRVATGFESLMGYLHLTQQKERLEELINWCIKKVGETNEK,not soluble
15,MREAVIVAGARTPIGKAKRGSLKTVRPDDLGALVVKETLKRANYEGPIDDLIFGCAMPEAEQGLNMARNIGGLAGLSYDVPAITINRYCSSGLQSIAYGAERIMLGHSEAVLSGGAESMSLVPMMGHVVRPNSRLVEAAPEYYMGMGHTAEQVAVKYGISREEQDAFAVRSHQRAAKALAAGNFADETVSVDVTLRTVGANNKLQEETITFAQDEGVRAETTLDILGKLRPAFNVRGSVTAGNSSQMSDGAASVLLMDREKAVSDGMKPLAKFRSFAVAGVPPEVMGIGPIAAIPKALKLAGLELSDIGLFELNEAFASQSIQVIRELGLDEEKVNVNGGAIALGHPLGCTGAKLTLSLIHEMKRRNEQFGIVTMCIGGGMGAAGVFELL,not soluble
16,MREINMILYIHIPFCENKCGYCAFNSYENKHGLKEEYTQALCLDLKHALSQTDEPIESVFIGGGTPNTLSVKAFERIFESIYQHASLSLDCEITTEANPELITKAWCQGLKGLGINRLSLGVQSFREDKLLFLERQHSKNIAPAIETILKSGIENISIDLIYNTPLDNENSLKEELKLAKELPINHLSAYALSVEKNTNLEKNAKKPSCAHFDNVVREILEGFSFKQYEVSNYARNYQVKHNLAYWGAKDYLGCGAGAVGCVANERFFAKKLIENYIKDPLQRQVETLNKQDKRLEKLFLGLRCVLGVELSFLDENKVKFLIEENKAFIKNNRLIASDFFMADEMALWLLLEHHHHHH,not soluble
17,MRFAPFTRQRHHNREQIKQHPEWFPAPLKASDRRWQALAENNHFLSSDHLHNITEVAIHRLEQQLGKPYVWGGTRPDQGFDCSGLVFYAYNKILEAKLPRTANEMYHYRRATIVANNDLRRGDLLFFHIHSREIADHMGGYLGDGQFIESLRTGETIRVSRLAEPFWQDHFLGARRILTEEMIL,not soluble
18,MRFAVLGSGSQGNGTLIVSADTCVLVDCGFSLRETERRLLRLGVDPAQLSAILVTHEHADHVHGVGLLSRRYNLPVYLSQGTLRGMRKPVEVAGFVRGGESLQIGALRIDVIAVAHDAQEPTQFVFSDGQRRFGLLTDLGSYCAGVLDGYRGLDALMIEANHCRDRLARGYYPYFLKQRVGGDLGHLNNHQAASLVAELGWQDLQHLVLAHLSSKNNLPQLARQCFVDTLGCDPDWLQLADQDSGLDWRHIALEHHHHHH,not soluble
19,MRFRPFTEEDLDRLNRLAGKRPVSLGALRFFARTGHSFLAEEGEEPMGFALAQAVWQGEATTVLVTRMEGRSVEALRGLLRAVVKSAYDAGVYEVALHLDPERKELEEALKAEGFALGPLVLAVRVLGSRGARGETRGVLE,soluble
20,MRFVDFFNALLEGKVIGQKCGDCGSYTCPPKATCDNCGSRNLEAVELSGKGVIRTFTTTYVAPSGYTNEAPYTVAMVELDEGPWIVGRIDLPNEEIEKFGQDLIGARVSVYGKEFPTEPFYPDKKRRVVPMFRLEGLEHHHHHH,soluble
21,MRFYNREKELARLMEIATLSEESAHLAVITGRRRVGKTELIRKFAEGRDDFLYFFVSKKKPRVLLDEFRDLLAARVPLLASASFGSFDDFFRALFEITKERPLFIVFDEFQNFQQVDPAVFSTLQDLWDRNKGTIKGTIVCIGSVQTLMREIFEGAKEPLFGRVTARLYVEPLIPDVVATILADHQVDAVRHLPFFFTLFGGIPKYYFLLDRYRLFGKTPAEIIRKFFCETDALLQNEGKDLLVEEFGKNYHLYFSILQVIAGGENQMARIADKSGINVNSISKYLDELTSYYQVIERRLPVTATRQEQKTGRYYLKDPLLRFWFRYIYRNQSLIEIGDEEGLLGKIQADLSTFMGWSFEELIRAMLLKRNDGTVVPFGFTRIGGFWTKRGDVEIDIVALNEEDGAIFFGECKLSGSRFSVADARRLKEKAKAVPWRTGDRREHFVLFCMDDLESDAEQALAAEGVGVVRLRQLLSVPLEHHHHHH,not soluble
22,MRGHLIDGDGRCIHYHGPFDVVGNKCATCNEWWACHRCHEEIANHPFGKMLIDAPSSLQCGHCGELMAYGVQKCPRCGHNFNPGCSLHTPLYYEMPSLEHHHHHH,not soluble
23,MRGKNTGKQRRSIKKQQTVAELKHLFDAPGRGSVMPRQVLWGDLCLTAFPHELNSESTAPMHRYILLSIIRIPLPLTLESQRSLTLVKRCFRRSSVLSSTLYSRLGSTTF,not soluble
24,MRGSHHHHHHGSACELGTMPHIDNDVKLDFKDVLLRPKRSTLKSRSEVDLTRSFSFRNSKQTYSGVPIIAANMDTVGTFEMAKVLCKFSLFTAVHKHYSLVQWQEFAGQNPDCLEHLAASSGTGSSDFEQLEQILEAIPQVKYICLDVANGYSEHFVEFVKDVRKRFPQHTIMAGNVVTGEMVEELILSGADIIKVGIGPGSVCTTRKKTGVGYPQLSAVMECADAAHGLKGHIISDGGCSCPGDVAKAFGAGADFVMLGGMLAGHSESGGELIERDGKKYKLFYGMSSEMAMKKYAGGVAEYRASEGKTVEVPFKGDVEHTIRDILGGIRSTCTYVGAAKLKELSRRTTFIRVTQQVNPIFSEAC,soluble
